Experimental data as given in patent US20130330346A1 (Novartis, published 2013).

T1: Human CXCR2 (human, UniProt P25025 1-360)
T1 sequence: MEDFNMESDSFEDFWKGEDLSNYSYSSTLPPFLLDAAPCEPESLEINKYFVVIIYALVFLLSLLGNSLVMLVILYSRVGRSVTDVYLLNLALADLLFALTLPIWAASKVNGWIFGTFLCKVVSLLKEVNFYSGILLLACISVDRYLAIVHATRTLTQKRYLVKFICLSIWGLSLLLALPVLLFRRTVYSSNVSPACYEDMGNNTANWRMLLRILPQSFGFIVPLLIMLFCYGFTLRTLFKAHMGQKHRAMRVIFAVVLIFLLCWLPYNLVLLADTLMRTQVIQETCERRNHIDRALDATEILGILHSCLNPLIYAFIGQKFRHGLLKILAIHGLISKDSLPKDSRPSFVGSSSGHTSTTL

T2: Cynomolgus CXCR2 (cynomolgus, UniProt Q28519 3-353 (rhesus entry))
T2 chain: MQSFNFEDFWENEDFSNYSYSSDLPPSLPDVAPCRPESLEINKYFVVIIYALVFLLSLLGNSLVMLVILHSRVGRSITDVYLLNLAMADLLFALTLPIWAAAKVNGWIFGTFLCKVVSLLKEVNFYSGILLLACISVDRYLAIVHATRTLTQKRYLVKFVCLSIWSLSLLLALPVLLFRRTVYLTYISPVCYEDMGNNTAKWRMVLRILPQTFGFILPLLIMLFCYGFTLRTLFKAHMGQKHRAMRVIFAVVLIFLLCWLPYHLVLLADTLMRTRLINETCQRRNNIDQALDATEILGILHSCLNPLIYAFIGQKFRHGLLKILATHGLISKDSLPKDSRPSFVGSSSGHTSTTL

B1: CXCR20035 (other)
chain: EVQLVESGGGLVQAGGSLTLSCAVSGSTFRINTMGWYRRAPGKQRELVAARDRGGYINYVDSVKGRFTVSRDNAKPTMYLQMNSLKPEDTAVYYCHAGTQDRTGRNFDRWGQGTQVTVSSGGGGSGGGGSGGGGSGGGGSGGGGSGGGGSGGGGSEVQLVESGGGLVQPGGSLRLSCVASGRIFSSNAMGWFRQAPGKEREFVAAITWRSGGSAYYADSAKGRFTISRDNAKNTVYLQMNSLKPEDTAVYYCAAGGSSWLSFPPDYWGQGTQVTVSS
notes: Biparatopic: two VHH joined by a GlySer linker; also called 54B12-35GS-163E3; 54B12-163E3; not shown: C-terminal c-myc tag and His6 tag coded by pAX100
B2: CXCR20034 (bispecific antibody)
chain: EVQLVESGGGLVQAGGSLRLSCAASGRTFSDYAMGWFRQAPGKEREFVAAITWNGGRVFYTASVKGRFTISRDNAKNTMYLQMNSLKPEDTAVYYCAADKDRRTDYLGHPVAYWGQGTQVTVSSGGGGSGGGGSGGGGSGGGGSGGGGSGGGGSGGGGSEVQLVESGGELVQPGGSLRLSCAASGSILTINAMGWYRQAPGKQRELVVRRTRGGSTTYQDSVKGRFTISADIAKKTMYLQMNSLKPEDTAVYYCMLDDRGGVYWGQGTQVTVSS
notes: Biparatopic: two VHH joined by a GlySer linker; also called 163D2-35GS-2B2; 163D2-2B2; not shown: C-terminal c-myc tag and His6 tag coded by pAX100
B3: CXCR20033 (bispecific antibody)
chain: EVQLVESGGGLVQPGGSLRLSCVASGRIFSSNAMGWFRQAPGKEREFVAAITWRSGGSAYYADSAKGRFTISRDNAKNTVYLQMNSLKPEDTAVYYCAAGGSSWLSFPPDYWGQGTQVTVSSGGGGSGGGGSGGGGSGGGGSGGGGSGGGGSGGGGSEVQLVESGGELVQPGGSLRLSCAASGSILTINAMGWYRQAPGKQRELVVRRTRGGSTTYQDSVKGRFTISADIAKKTMYLQMNSLKPEDTAVYYCMLDDRGGVYWGQGTQVTVSS
notes: Biparatopic: two VHH joined by a GlySer linker; also called 163E3-35GS-2B2; 163E3-2B2; not shown: C-terminal c-myc tag and His6 tag coded by pAX100

How the values were obtained:
[1] = target: T1, Human CXCR2; assay: cell-based or functional assay
[2] = target: T2, Cynomolgus CXCR2; assay: cell-based or functional assay
[3] = target: T1, Human CXCR2; assay: cell-based or functional assay; remark: listed apart in the source
[4] = target: T1, Human CXCR2; assay: cell-based or functional assay; remark: listed apart in the source
[5] = target: T2, Cynomolgus CXCR2; assay: cell-based or functional assay
[6] = target: T1, Human CXCR2; assay: FACS competition vs 3 nM FMAT-Blue Gro-α
Experimental: (§1) Multivalent anti-CXCR2Nanobodies were titrated against 3 nM FMAT-Blue-labeled Gro-α in the FACS ligand competition assay on human and cynomolgus CXCR2 (Table 14). On human CXCR2, blocking potencies range between double digit nM and sub-nM whereas on cynomolgus CXCR2, they range between single and double digit nM.

[7] = target: T2, Cynomolgus CXCR2; assay: FACS competition vs 3 nM FMAT-Blue Gro-α
Experimental: as §1

Binder | FLIPR % inhibition of max [1] | FLIPR IC50 (GRO-α induced calcium release) [1] | FLIPR % inhibition of max [2] | FLIPR IC50 (GRO-α induced calcium release) [2] | [35S]GTPγS % inhibition of max (ENA-78) [3] | [35S]GTPγS % inhibition of max (GRO-α) [3] | [35S]GTPγS % inhibition of max (IL-8) [3] | [35S]GTPγS IC50 (ENA-78) [3] | [35S]GTPγS IC50 (GRO-α) [3] | [35S]GTPγS IC50 (IL-8) [3] | Human WBSC IC50 (rhGROα) [4] | Cynomologus WBSC IC50 (rhGROα) [5] | % inhibition of max [6] | IC50 [6] | % inhibition of max [7] | IC50 [7] | Human Chemotaxis IC50 (rhGROα) [4]
B1 | 100% | 10.2 nM | 100% | 8.72 nM | 100% | 100% | 100% | 1.17 nM | 0.844 nM | 0.717 nM | 0.24 nM | 0.43 nM | 99% | 1 nM | 99% | 3.23 nM | 
B2 | 100% | 11.8 nM | 100% | 9.47 nM |  | 100% |  |  | 0.995 nM |  | 0.29 nM | 0.44 nM | 100% | 0.8 nM | 99% | 2.55 nM | 0.143 nM
B3 | 100% | 17.9 nM | 100% | 4.46 nM |  | 100% |  |  | 1.01 nM |  | 0.345 nM | 0.42 nM | 100% | 0.65 nM | 99% | 2.2 nM | 0.15 nM
